Consider 17 molecules from patent US20060088522A1, “Humanized anti-5T4 antibodies and anti-5T4/calicheamicin conjugates” (Wyeth, priority 2004, published 2006).

For orientation: Kd means the constant that tells how readily two partners part at equilibrium. Higher therefore signals lower affinity. As a reminder, the koff is the first-order rate constant of dissociation. A high value points to fast dissociation. The term kon denotes the second-order rate constant of association. Low readings indicate slow association, high ones fast association. As usually defined, the IC50 is the point on the concentration scale where inhibition reaches its midpoint.

For experiment [1], the system named is PC14PE6 lung tumors. The experiment in a line: orthotopic model of human lung cancer. The format is in vivo, nude mice. Particulars: intraperitoneal, 3 doses on days 6, 10 and 14. The protocol:
To further assess the targeting ability of antibodies having an H8-calicheamicin conjugates, an orthotopic model for non-small cell and small cell cancer was used, essentially as described by Onn et al. (2003) Clin. Cancer Res. 9(15):5532-5539. In brief, human lung adenocarcinoma (PC14PE6) cells were injected into tail veins of nude mice, which then migrated to form tumors in lung. Tumors appeared as solid nodules in the lung parenchyma and caused hemorrhagic pleural effusions containing suspended tumor cells. Injection of control compounds and H8-calicheacmicin conjugates were administered by intraperitoneal injection to tumor-bearing mice beginning at 6 days after injection of tumor cells for a total of 3 doses given at 4-day intervals, i.e., on days 6, 10, and 14.

Experiment [2] addresses T1, human 5T4 antigen (human, UniProt Q13641 32-355, limits assumed).
T1 construct: Isolated antigen as used in BIACORE and ELISA; also called 5T4 oncofetal antigen
T1 sequence (looked up): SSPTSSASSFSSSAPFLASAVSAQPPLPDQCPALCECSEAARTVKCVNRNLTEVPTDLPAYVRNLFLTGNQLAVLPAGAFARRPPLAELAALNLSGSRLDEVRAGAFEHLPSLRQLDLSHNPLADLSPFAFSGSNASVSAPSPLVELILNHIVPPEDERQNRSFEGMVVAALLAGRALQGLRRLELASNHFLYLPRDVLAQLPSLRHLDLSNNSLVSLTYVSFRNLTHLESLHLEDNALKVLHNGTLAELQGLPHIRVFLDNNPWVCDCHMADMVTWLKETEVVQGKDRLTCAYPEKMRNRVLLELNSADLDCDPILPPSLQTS
The experiment in a line: BIACORE, human 5T4 antigen immobilized on a CM5 chip, antibody 12.5 nM to 200 nM. On the procedure:
BIACORE® technology utilizes changes in the refractive index at the surface layer upon binding of the antibody to the 5T4 antigen immobilized on the layer. Binding is detected by surface plasmon resonance (SPR) of laser light refracting from the surface. Analysis of the signal kinetics on rate and off rate allows the discrimination between non-specific and specific interaction. The concentration of antibody used was in the range of 12.5 nM to 200 nM.

Experiment [3] has as its target T1, human 5T4 antigen. The experiment in a line: BIACORE (plasmon resonance). (In general: In SPR one partner is held on a chip, and binding of the other changes the refractive index at the surface.)
In experiment [4] the target is T2, human 5T4 antigen on cells (human, UniProt Q13641 32-420).
T2 construct: whole, on cells; also called 5T4 on MDAMB435/5T4 cells; 5T4 on CT26/5T4 cells
T2 sequence (looked up): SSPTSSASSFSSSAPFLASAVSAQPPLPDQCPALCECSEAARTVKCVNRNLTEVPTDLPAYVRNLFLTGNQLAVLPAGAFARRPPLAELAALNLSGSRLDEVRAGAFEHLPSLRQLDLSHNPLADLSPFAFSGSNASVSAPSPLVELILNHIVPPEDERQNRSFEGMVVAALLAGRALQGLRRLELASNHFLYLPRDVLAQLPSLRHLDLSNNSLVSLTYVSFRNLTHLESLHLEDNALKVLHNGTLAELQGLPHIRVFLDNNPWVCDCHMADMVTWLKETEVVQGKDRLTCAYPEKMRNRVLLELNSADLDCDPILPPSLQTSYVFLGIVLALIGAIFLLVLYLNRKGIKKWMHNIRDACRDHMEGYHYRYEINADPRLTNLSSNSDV
Kind of experiment: cell-based or functional assay.

Experiment [5] concerns the target T1, human 5T4 antigen. The experiment in a line: BIACORE.
Experiment [6] has as its target T2, human 5T4 antigen on cells. The experiment in a line: FACS on MDAMB435/5T4 cells.
In experiment [7] the target is T2, human 5T4 antigen on cells. The experiment in a line: flow cytometry on MDAMB435/5T4 cells. For orientation: A flow cytometer gives signals particle by particle.
The target of experiment [8] is T2, human 5T4 antigen on cells. Kind of experiment: flow cytometry on N87, PC14PE6 and NCl-H157 cells (told of each).
Experiment [9] has as its target T1, human 5T4 antigen. The experiment in a line: competition ELISA on plate-coated human 5T4 antigen; competitor biotinylated chimeric H8 at its ED50. (In an ELISA, binding on a coated surface is turned into a signal by an enzyme label.)
Description: ELISA plates were coated with human 5T4 antigen. To each well was added 100 μl of 1 μg/ml 5T4 antigen in PBS-CMF pH 7.2. The plates were incubated overnight at 4° C. After coating with antigen, plates were washed in a blocking solution of 0.02% casein in PBS-CMF, pH 7.2 for 2-4 hours at room temperature. […] Plates were washed 4 times with 200 μl of 0.03% TWEEN®-20 in PBS. The signal was developed for 10-15 minutes at room temperature following addition of 100 ∥l BIOFX® TMB (Biofx Laboratories, Inc. of Randallstown, Md.) per well. The reaction was stopped by addition of 100 μl per well of 0.18 N H₂SO₄. All incubation and wash steps were performed with gentle agitation. […] The ED50 of biotinylated antibody binding to antigen was determined by plotting OD₄₅₀ (duplicate data points averaged) as a function of biotinylated antibody concentration. […] The biotin label was amplified using streptavidin-HRP diluted 1:10,000 in assay buffer, followed by signal development and quantification as above.

Substitutions are numbered along the chain they refer to.

Consider “CMA: anti-CD33 antibody (p67.6) conjugated to calicheamicin, AcBut linker; control conjugate”, for which, in [1], the pleural effusions result was “did not reduce the pleural effusions” and the “survival of tumor-bearing animals” value is “slightly increased the average survival”.

B1: Humanized H8 version 2 (hVH2/hVL2) (antibody, human IgG4 S228P, kappa, V domains shown)
VH: QVQLVQSGAEVKKPGASVKVSCKASGYSFTGYYMHWVRQAPGQGLEWMGRINPNNGVTLYNQKFKDRVTMTRDTSISTAYMELSRLRSDDTAVYYCARSTMITNYVMDYWGQGTLVTVSS
VL: DIVMTQSPDSLAVSLGERATINCKASQSVSNDVAWYQQKPGQPPKLLIYYTSSRYAGVPDRFSGSGSGTDFTLTISSLQAEDVAVYYCQQDYNSPPTFGGGTKLEIKR
B1: binding in experiment [2] was put at a Kd of 0.12 nM.

B2: Humanized H8 version 2/CM (antibody, human IgG4 S228P, kappa, V domains shown)
VH: B1 VH
VL: B1 VL
modifications: calicheamicin (CM) conjugated; linker and residues not stated
notes: also called humanized H8 version 2-calicheamicin conjugates
For the molecule B2, in experiment [3], the Kd was 0.17 nM, the koff worked out at 2e-05 s⁻¹ and the kon was 120000 M⁻¹ s⁻¹.

B3: Humanized H8 version 2/AcBut/CalichDMH (antibody, human IgG4 S228P, kappa, V domains shown)
VH: B1 VH
VL: B1 VL
modifications: CalichDMH conjugated through the AcBut linker; residues not stated
notes: Conjugate sample contained 61 ug CalichDMH per mg protein, 1% free antibody, 1.4% aggregate; also called humanized H8 calicheamicin conjugate
In experiment [3], B3 gave a Kd of 0.26 nM, a koff of 3.4e-05 s⁻¹ and a kon of 130000 M⁻¹ s⁻¹.

B4: Humanized H8 version 3 (hVH3/hVL2) (antibody, human IgG4 S228P, kappa, V domains shown)
VH: B1 VH with M70I, I76T, R85S, D89E
VL: B1 VL
B4 came in with a Kd in experiment [2] of 0.12 nM.

B5: Humanized H8 version 1 (hVH1/hVL1) (antibody, human IgG4 S228P, kappa, V domains shown)
VH: B1 VH with R38K, A40S, M48I
VL: B1 VL with P43S, Y49S, Y87F
In experiment [2], B5 returned a Kd of 0.84 nM.

B6: H8-AcBut-CalichDMH (antibody, V domains shown)
VH: EVQLQQSGPDLVKPGASVKISCKASGYSFTGYYMHWVKQSHGKSLEWIGRINPNNGVTLYNQKFKDKAILTVDKSSTTAYMELRSLTSEDSAVYYCARSTMITNYVMDYWGQVTSVTVSS
VL: SIVMTQTPTFLLVSAGDRVTITCKASQSVSNDVAWYQQKPGQSPTLLISYTSSRYAGVPDRFIGSGYGTDFTFTISTLQAEDLAVYFCQQDYNSPPTFGGGTKLEIK
For the molecule B6, the ED50 (ng/ml calicheamicin), MTS vital dye, MDAMB435/5T4 cells in experiment [4] amounted to 0.04 ng/mL.

B7: H8 antibody/PEG-bis-maleimide (PEGmal2) (antibody, V domains shown)
VH: B6 VH
VL: B6 VL
notes: also called H8PEGmal2; H8PEG(mal2)
In the case of B7, in experiment [5], the “fraction of binding to 5T4 lost following antibody modification” value (from here on “fraction of binding”) is 43%.

B8: H8PEGmal2-AcBut-CalichDMH (antibody, V domains shown)
VH: B6 VH
VL: B6 VL
B8: the ED50 (ng/ml calicheamicin), MTS vital dye, MDAMB435/5T4 cells in [4] was 0.9 ng/mL.

B9: H8 antibody/PEG-SBA (PEG5K) (antibody, V domains shown)
VH: B6 VH
VL: B6 VL
notes: also called H8PEG5K; H8PEG
With B9, the “fraction of binding” value in experiment [5] was 79%.

B10: H8 antibody/PEG-SPA (PEG2K) (antibody, V domains shown)
VH: B6 VH
VL: B6 VL
notes: also called H8PEG2K; H8PEG
In the case of B10, the “fraction of binding” value in experiment [5] came out at 69%.

B11: Semi-Humanized H8 (mVH/hVL1) (antibody, human IgG4 S228P, kappa, V domains shown)
VH: B6 VH
VL: B1 VL with P43S, Y49S, Y87F
notes: murine H8 VH + mutated human IgG4; also called semi-humanized H8 antibody; semi-human anti-5T4 antibody
With B11, in [6], the binding result is “binds”.

B12: H8-Amide-CalichDMH (antibody, V domains shown)
VH: B6 VH
VL: B6 VL
For the molecule B12, in experiment [4], the ED50 (ng/ml calicheamicin), MTS vital dye, MDAMB435/5T4 cells amounted to 0.18 ng/mL and the fold cytotoxicity, 5T4-expressing against 5T4-negative cells came out at 200 fold.

B13: murine H8 anti-5T4 antibody (antibody, V domains shown)
VH: B6 VH
VL: B6 VL
notes: also called mAb5T4; H8 antibody
Regarding B13, the “fold signal over control IgG” value in experiment [7] was over 100 fold. The “fold signal over control IgG” value in [8] is about 10 fold. In experiment [2], binding was characterised by a dissociation constant (Kd) of 0.58 nM, the koff amounted to 5.9e-05 s⁻¹ and the kon came to 100000 M⁻¹ s⁻¹.

B14: Chimeric H8 (mVH/mVL) (antibody, V domains shown)
VH: B6 VH
VL: B6 VL
notes: also called chimeric H8 antibody; chimeric versions of H8
In the case of B14, in experiment [2], binding was put at a Kd of 0.3 nM, the off-rate (koff) is 4.2e-05 s⁻¹ and the kon was found to be 140000 M⁻¹ s⁻¹. Moreover, the IC50 in [9] was 1 nM.

B15: H8-AcPac-CalichDMH (antibody, V domains shown)
VH: B6 VH
VL: B6 VL
With B15, the ED50 (ng/ml calicheamicin), MTS vital dye, MDAMB435/5T4 cells in experiment [4] came out at 0.02 ng/mL.

B16: Murine H8/CM (antibody, V domains shown)
VH: B6 VH
VL: B6 VL
notes: also called murine H8-calicheamicin conjugates
In experiment [3], B16 had a dissociation constant Kd of 0.58 nM, a koff of 5.9e-05 s⁻¹ and a kon of 100000 M⁻¹ s⁻¹.
